Data from publication PMC11494503 (2024).

Target: T1, cyclo-CLLFCL (head-to-tail cyclic peptide)
T1 chain: CLLFCL
Assay: microscale thermophoresis

B1: HIF-1α PAS-B (protein)
chain: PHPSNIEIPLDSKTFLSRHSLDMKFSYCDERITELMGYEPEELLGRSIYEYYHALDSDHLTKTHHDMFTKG
Kd: 470 nM
